Test results taken from patent US20160334404.

Biological target: Q13093
Experiment: estimated from dilution inactivation (residual CAM activity against enzyme concentration), self-association

B1: recombinant lipoprotein-associated phospholipase A2 (rLp-PLA2) expressed in HEK293 cells (protein)
chain: FDWQYINPVAHMKSSAWVNKIQVLMAAASFGQTKIPRGNGPYSVGCTDLMFDHTNKGTFLRLYYPSQDNDRLDTLWIPNKEYFWGLSKFLGTHWLMGNILRLLFGSMTTPANWNSPLRPGEKYPLVVFSHGLGAFRTLYSAIGIDLASHGFIVAAVEHRDRSASATYYFKDQSAAEIGDKSWLYLRTLKQEEETHIRNEQVRQRAKECSQALSLILDIDHGKPVKNALDLKFDMEQLKDSIDREKIAVIGHSFGGATVIQTLSEDQRFRCGIALDAWMFPLGDEVYSRIPQPLFFINSEYFQYPANIIKMKKCYSPDKERKMITIRGSVHQNFADFTFATGKIIGHMLKLKGDIDSNVAIDLSNKASLAFLQKHLGLHKDFDQWDCLIEGDDENLIPGTNINTTNQHIMLQNSSGIEKYN
- concentration at which roughly half is monomer and half aggregate or oligomer: At the concentration at 2.5 µg/ml or 53 nM, roughly half of rLp-PLA2 is in monomer and half forms the aggregate or oligomer as estimated
